Publication doi:10.1101/2023.09.20.558696

Legend:
Test in all cases: co-IP
[1] = biological target: LtPP1-8e F305A, Pd-tagged (L. tarentolae)
[2] = biological target: LtPP1-8e D290A, Pd-tagged (L. tarentolae)
[3] = biological target: LtPP1-8e 359-362A, Pd-tagged (L. tarentolae)
[4] = biological target: LtPP1-8e CΔ11, Pd-tagged (L. tarentolae)
[5] = biological target: LtPP1-8e I360A, Pd-tagged (L. tarentolae)
[6] = biological target: LtPP1-8e 310DHK312 to alanine, Pd-tagged (L. tarentolae)
[7] = biological target: LtPP1-8e D292A, Pd-tagged (L. tarentolae)
[8] = biological target: LtPP1-8e 109-134Δ, Pd-tagged (L. tarentolae)
[9] = biological target: LtPP1-8e 109-114A, Pd-tagged (L. tarentolae)
[10] = biological target: LtPP1-8e 354-358A, Pd-tagged (L. tarentolae)
[11] = biological target: LtPP1-8e 263-265A, Pd-tagged (L. tarentolae)
[12] = biological target: LtPP1-8e I217A, Pd-tagged (L. tarentolae)
[13] = biological target: LtPP1-8e CΔ23, Pd-tagged (L. tarentolae)
[14] = biological target: LtPP1-8e 260LP261 to alanine, Pd-tagged (L. tarentolae)
[15] = biological target: LtPNUTS D101A, Pd-tagged (L. tarentolae)
[16] = biological target: LtPNUTS L111A, Pd-tagged (L. tarentolae)
[17] = biological target: LtPNUTS V97A, Pd-tagged (L. tarentolae)
[18] = biological target: LtPNUTS R94A, Pd-tagged (L. tarentolae)

reduction of co-IP against WT PP1-8e [1] | reduction of co-IP against WT PP1-8e [2] | reduction of co-IP against WT PP1-8e [3] | reduction of co-IP against WT PP1-8e [4] | reduction of co-IP against WT PP1-8e [5] | decrease of co-IP against WT PP1-8e [6] | reduction of co-IP against WT PP1-8e [7] | reduction of co-IP against WT PP1-8e [8] | reduction of co-IP against WT PP1-8e [9] | reduction of co-IP against WT PP1-8e [10] | reduction of co-IP against WT PP1-8e [11] | reduction of co-IP against WT PP1-8e [12] | loss of co-IP against WT PP1-8e [13] | reduction of co-IP against WT PP1-8e [14] | decrease of co-IP against WT PNUTS [15] | reduction of co-IP against WT PNUTS [16] | fold decrease of co-IP against WT PNUTS [17] | reduction of co-IP against WT PNUTS [18] | Substance
80% | 50% | 80% | 30% | 80% | 20% | 60% | 80% | 80% | 50% | 90% | 50% | 80% | 80% |  |  |  |  | LtPNUTS, endogenously HA-tagged (natural protein)
 |  |  |  |  |  |  |  |  |  |  |  |  |  | 80% | 80% | 5 fold | 50% | LtPP1-8e, endogenously HA-tagged (enzyme)
